Laboratory results as given in patent US20110165592A1 (HOFFMAN LA ROCHE, published 2011).
Each block holds one binder with its values, some of them ahead of it.

Columns and labels:
human EPO receptor = molecular target: T1, human EPO receptor (human, UniProt P19235 25-508); assay: Western blot of lysates of HELAwt, HELA-EPOR and UT-7 cells
T1 construct: whole, on cells; In the Western blots the receptor stood in lysates of HeLa-EPOR (recombinant) and UT-7 cells; band of about 60 kDa; also called human erythropoietin receptor
T1 sequence (looked up): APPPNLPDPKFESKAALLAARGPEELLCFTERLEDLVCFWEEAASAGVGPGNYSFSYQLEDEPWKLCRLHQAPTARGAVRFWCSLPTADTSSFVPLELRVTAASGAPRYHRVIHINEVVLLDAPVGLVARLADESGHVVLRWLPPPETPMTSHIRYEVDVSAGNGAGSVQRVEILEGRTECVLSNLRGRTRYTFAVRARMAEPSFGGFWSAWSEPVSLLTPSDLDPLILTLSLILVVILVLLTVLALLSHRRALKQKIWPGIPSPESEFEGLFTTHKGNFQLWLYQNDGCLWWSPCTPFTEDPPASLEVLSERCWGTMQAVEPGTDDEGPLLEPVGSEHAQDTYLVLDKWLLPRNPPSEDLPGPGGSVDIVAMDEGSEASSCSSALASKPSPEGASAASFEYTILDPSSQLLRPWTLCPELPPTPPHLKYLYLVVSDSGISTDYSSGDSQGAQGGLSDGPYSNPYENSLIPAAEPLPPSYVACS
Procedure: FIG. 2 WB analysis of lysates from HELAwt, HELA-EPOR and UT-7 cells (to show specificity). (a) Specific binding of Mab Cl. […] (b) Specific binding of Mab Cl.
The SDS-PAGE and western blotting were performed according to standard procedures and the NuPAGE® gel system of Invitrogen. The extracts corresponding to different number of cells were loaded in each line of a NuPAGE® Novex® 4-12% Bis-Tris gel. The proteins were then transferred onto PVDF membranes and incubated with the respective antibodies overnight at 4° C. After washing, the membranes were incubated with a conjugate anti-mouse or anti-rabbit IgG-POD and developed using ECL reagents (Lumi-Light^PLus western blotting substrate, Roche Diagnostics GmbH): Results are shown in FIG. 2.

[1] = molecular target: T2, biotinylated peptide 382-402 (corresponding to the mature EPOR) (human, biotinylated (site not stated)); assay: Biacore 3000 SPR, 25 C, antibody on immobilized biotinylated peptide (avidity)
T2 construct: Range counted on mature human EPOR (aa406-426 of the precursor); also called EPOR peptide 382-402
T2 peptide: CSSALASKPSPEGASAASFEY
Procedure: Measurements were made on a BIACORE™ 3000 at 25° C. in HBS-EP-Buffer, pH 7.4 (10 mM HEPES, 150 mM NaCl, 3.4 mM EDTA, 0.005% polysorbate 20 (w/v). 1.0 mg/ml CMD was added to reduce unspecific binding. Results are shown in Table 1.

binding result (human EPO receptor): binds
B1: Mab Cl. 21.3.1 (antibody, V domains shown)
VH: AVQVVESGGDLVKPGGSLQLSCAASGFTFSSYAMSWARQTPEKRLEWVATISGRGTYTYYPDSVKGRFTISRDNAKNILYLQMSSLRSEDTAMYYCTPRLFAYWGQGTLVTVSA
VL: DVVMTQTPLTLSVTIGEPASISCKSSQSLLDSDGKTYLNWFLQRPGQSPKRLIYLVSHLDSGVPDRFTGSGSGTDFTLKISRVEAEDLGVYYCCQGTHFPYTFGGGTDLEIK

binding result (human EPO receptor): binds
Ka [1]: 1.1e+09 M⁻¹
Kd [1]: 1 nM
koff [1]: 0.0021 s⁻¹
kon [1]: 1.9e+06 M⁻¹ s⁻¹
B2: Mab Cl. 19.1.2 (antibody, V domains shown)
VH: QVQLQQSGAELVRPGSSVKISCKASGYTFSRYWMNWVKQRPGQGLEWIGQIYPGDGDTNYIGDFKGKATLTADKSSSIAYMQLSSLTSEDSAVYFCARLMVPTYGLDYWGQGTSVTVSS
VL: DIVMSQSPSSLAVSAGEKVTMSCKSSQSLLNSRTRKNYLAWYQQKPGQSPKLLIYWASTRESGVPDRFTGSGSGTDFTLTIYSVQAEDLAVYYCKESYILPYTLGGGTKLEIK
notes: Mouse (Balb/c) monoclonal raised against peptide 382-402
